Here are results for 4 molecules from article PMC7725318, “Structures of three MORN repeat proteins and a re-evaluation of the proposed lipid-binding properties of MORN repeats” (PLoS ONE, 2020).

The target in data set [1] is TbMORN1(10–15) (Trypanosoma brucei brucei strain Lister 427). The experiment in a line: SEC-MALS; Superdex 200 Increase 10/300 GL; 20 mM Tris-HCl pH 8.5, 200 mM NaCl, 2% (w/v) glycerol, 0.5 mM DTT; 100 μl of 2–4 mg/ml protein applied. (In general: SEC sorts molecules by how far they enter the pores of the column.)
The target of data set [2] is TbMORN1(2–15) (Trypanosoma brucei brucei strain Lister 427). Described as above.
The target of data set [3] is TbMORN1(7–15) (Trypanosoma brucei brucei strain Lister 427). Described as above.
Data set [4] concerns the molecule itself. The experiment in a line: crystal structure; sitting-drop vapour diffusion at 22°C; TbMORN1(7–15) in forms P21 and C2 and TgMORN1(7–15) in P43212 as extended dimers; PfMORN1(7–15) in C2221 as a V-shaped dimer with Zn2+.

Usually stoichiometry N stands for the number of molecules, sites or subunits per partner or assembly. On to TbMORN1(10–15) (domain or fragment), for which the stoichiometry N in data set [1] stood at 2.
Turning to TbMORN1(2–15) (domain or fragment), in data set [2], the stoichiometry N stood at 2.
Take TbMORN1(7–15) (domain or fragment): the stoichiometry N in data set [3] was 2.

B1: TgMORN1(7–15) (domain or fragment, Toxoplasma gondii)
chain: EKYEGDWVNGKMHGHGKYIYSDGGVYEGDWIDGKMHGKGTYVFPNGNVYEGEWAHDMKDGYGVLTYQNGEKYEGYWKQDKVHGKGTLTYTRGDKYIGDWMDAKKDGEGELIYANGDRFKGQWADDRANGFGVFTYANGNRYEGEWTDDKRHGRGVFYCAEDGSAYEGEFVGGRKEGNGILRLATGHQLEGTWSGGQLVRVTSFVFAQDSPWLNVDL
notes: TgMORN1, Toxoplasma gondii (1092 bp open reading frame), MORN repeats 7–15; also called Toxoplasma gondii MORN1(7–15); source: E. coli Rosetta 2 (DE3)pLysS, purified; not shown: His10, N-terminal, cleaved
Take B1: the binding result in data set [4] is “binds”.
